Test results: publication PMC12720418

Target: VC1 tandem domains of the receptor for advanced glycation end-products (RAGE)
Test: ITC; 100 μM calprotectin (CP*) injected into 50 μM RAGE VC1 in the cell; 25°C; 50 mM HEPES pH 7.5, 150 mM NaCl, 10 mM CaCl2; average of three titrations, independent binding model

Kd: 380 nM
Substance: calprotectin heterodimer of S100A8 (C42S) and S100A9 (C3S) (from UniProt P05109 1-93; P06702 4-114) (complex)
